Measured values published in US8460910B2 (Illumina Cambridge Limited, priority 2003, dated 2013).

Tested on: 3′ modified nucleotide
Assay: Gel-based incorporation assay of Example 2, two cycles of enzymology on bead-bound 32P-labelled DNA template
Assay type: biochemical
Method: The mutant polymerases were assessed for their ability to incorporate a 3′ blocked nucleotide analogue using a gel-based assay as described in generic form in Example 1. The rates of incorporation of the modified nucleotides were compared to purified forms of related DNA polymerases in both a single round of incorporation and through two rounds of nucleotide incorporation. The DNA template that was used for these experiments was a commercially-synthesised biotinylated oligonucleotide.
The method for two cycles of incorporation involves the binding of the DNA primer-template to streptavidin-coated beads (Dynalbeads). These are prepared as follows: • Resuspend beads in storage pot by pipetting up and down Take 20 μL beads • Wash 3×200 μL TE buffer (10 mM Tris HCl pH 7.5, 1 mM EDTA) Add 50 μL B&W buffer (5 mM Tris HCl, pH 7.5; 1M NaCl, […]) • 25 μL H2O • 25 μL of ^32P-labelled biotin DNA template (final concentration of 100 nM)
The first cycle of enzymatic incorporation is performed on these beads as follows:
Incorporation mix 1 is added to the bead pellet from above.
Reactions are incubated at 45° C. for 15 minutes
The first cycle of enzymology is then deblocked by treatment with tri(carboxyethyl) phosphine (TCEP) as follows:
Add 65 μL TCEP (100 mM) in water and incubate at 65° C. for 15 minutes
After removal of the TE buffer, a second cycle of enzymatic incorporation is then performed by the addition of incorporation mix 2, as follows:
Take 5 μL samples out at ½, 1, 2, 4, 10, 30, 60 mins and add to gel loading buffer with EDTA.
Heat all samples to 95° C. for 10 mins and load 3 μl on a 12% acrylamide gel (Sambrook and Russell, 2001).
Time (mins) to 50% product conversion on second cycle of enzymology at 45° C., 50 mM Tris, pH 8, 4 mM MgSO4, 0.05 (v/v) Tween, 50 μg/ml enzyme, and 2 μM 3′ modified nucleotide. Time to 50% product conversion on first cycle of incorporation shown in parentheses. For other mutants the time to 50% conversion on the first cycle was not measured in these experiments

[1] = 45° C., 50 mM Tris, pH 8, 4 mM MgSO4, 0.05 (v/v) Tween, 50 μg/ml enzyme, 2 μM 3′ modified nucleotide

B1: YAS: 9° N polymerase mutant, motif A region YAS, also A485L; SEQ ID NO: 20 (protein)
chain: MILDTDYITENGKPVIRVFKKENGEFKIEYDRTFEPYFYALLKDDSAIEDVKKVTAKRHGTVVKVKRAEKVQKKFLGRPIEVWKLYFNHPQDVPAIRDRIRAHPAVVDIYEYDIPFAKRYLIDKGLIPMEGDEELTMLAFAIATLYHEGEEFGTGPILMISYADGSEARVITWKKIDLPYVDVVSTEKEMIKRFLRVVREKDPDVLITYNGDNFDFAYLKKRCEELGIKFTLGRDGSEPKIQRMGDRFAVEVKGRIHFDLYPVIRRTINLPTYTLEAVYEAVFGKPKEKVYAEEIAQAWESGEGLERVARYSMEDAKVTYELGREFFPMEAQLSRLIGQSLWDVSRSSTGNLVEWFLLRKAYKRNELAPNKPDERELARRRGGYAGGYVKEPERGLWDNIVYLDFRSYASSIIITHNVSPDTLNREGCKEYDVAPEVGHKFCKDFPGFIPSLLGDLLEERQKIKRKMKATVDPLEKKLLDYRQRLIKILANSFYGYYGYAKARWYCKECAESVTAWGREYIEMVIRELEEKFGFKVLYADTDGLHATIPGADAETVKKKAKEFLKYINPKLPGLLELEYEGFYVRGFFVTKKKYAVIDEEGKITTRGLEIVRRDWSEIAKETQARVLEAILKHGDVEEAVRIVKEVTEKLSKYEVPPEKLVIHEQITRDLRDYKATGPHVAVAKRLAARGVKIRPGTVISYIVLKGSGRIGDRAIPADEFDPTKHRYDAEYYIENQVLPAVERILKAFGYRKEDLRYQKTKQVGLGAWLKVKGKK
modifications: 9oN polymerase variant (exo-) with L408Y/Y409A/P410S mutations
[1]
  Time (mins) to 50% product conversion on second cycle of enzymology: 1.5 min
Region A variants, conditions of Example 2
  incorporation of 3′ modified nucleotide analogues compared to 9° N DM (Y409V/A485L): best incorporation rate

B2: FAI: 9° N DM-derived polymerase with amino acids 408-410 FAI (protein, UniProt Q56366 1-775, looked up, variant D141A E143A L408F Y409A P410I A485L)
DNA polymerase: MILDTDYITENGKPVIRVFKKENGEFKIEYDRTFEPYFYALLKDDSAIEDVKKVTAKRHGTVVKVKRAEKVQKKFLGRPIEVWKLYFNHPQDVPAIRDRIRAHPAVVDIYEYDIPFAKRYLIDKGLIPMEGDEELTMLAFAIATLYHEGEEFGTGPILMISYADGSEARVITWKKIDLPYVDVVSTEKEMIKRFLRVVREKDPDVLITYNGDNFDFAYLKKRCEELGIKFTLGRDGSEPKIQRMGDRFAVEVKGRIHFDLYPVIRRTINLPTYTLEAVYEAVFGKPKEKVYAEEIAQAWESGEGLERVARYSMEDAKVTYELGREFFPMEAQLSRLIGQSLWDVSRSSTGNLVEWFLLRKAYKRNELAPNKPDERELARRRGGYAGGYVKEPERGLWDNIVYLDFRSFAISIIITHNVSPDTLNREGCKEYDVAPEVGHKFCKDFPGFIPSLLGDLLEERQKIKRKMKATVDPLEKKLLDYRQRLIKILANSFYGYYGYAKARWYCKECAESVTAWGREYIEMVIRELEEKFGFKVLYADTDGLHATIPGADAETVKKKAKEFLKYINPKLPGLLELEYEGFYVRGFFVTKKKYAVIDEEGKITTRGLEIVRRDWSEIAKETQARVLEAILKHGDVEEAVRIVKEVTEKLSKYEVPPEKLVIHEQITRDLRDYKATGPHVAVAKRLAARGVKIRPGTVISYIVLKGSGRIGDRAIPADEFDPTKHRYDAEYYIENQVLPAVERILKAFGYRKEDLRYQKTKQVGLGAWLKVKGKK
[1]
  Time (mins) to 50% product conversion on second cycle of enzymology: 2.2 min

B3: CAA: 9° N DM-derived polymerase with amino acids 408-410 CAA (protein, UniProt Q56366 1-775, looked up, variant D141A E143A L408C Y409A P410A A485L)
DNA polymerase: MILDTDYITENGKPVIRVFKKENGEFKIEYDRTFEPYFYALLKDDSAIEDVKKVTAKRHGTVVKVKRAEKVQKKFLGRPIEVWKLYFNHPQDVPAIRDRIRAHPAVVDIYEYDIPFAKRYLIDKGLIPMEGDEELTMLAFAIATLYHEGEEFGTGPILMISYADGSEARVITWKKIDLPYVDVVSTEKEMIKRFLRVVREKDPDVLITYNGDNFDFAYLKKRCEELGIKFTLGRDGSEPKIQRMGDRFAVEVKGRIHFDLYPVIRRTINLPTYTLEAVYEAVFGKPKEKVYAEEIAQAWESGEGLERVARYSMEDAKVTYELGREFFPMEAQLSRLIGQSLWDVSRSSTGNLVEWFLLRKAYKRNELAPNKPDERELARRRGGYAGGYVKEPERGLWDNIVYLDFRSCAASIIITHNVSPDTLNREGCKEYDVAPEVGHKFCKDFPGFIPSLLGDLLEERQKIKRKMKATVDPLEKKLLDYRQRLIKILANSFYGYYGYAKARWYCKECAESVTAWGREYIEMVIRELEEKFGFKVLYADTDGLHATIPGADAETVKKKAKEFLKYINPKLPGLLELEYEGFYVRGFFVTKKKYAVIDEEGKITTRGLEIVRRDWSEIAKETQARVLEAILKHGDVEEAVRIVKEVTEKLSKYEVPPEKLVIHEQITRDLRDYKATGPHVAVAKRLAARGVKIRPGTVISYIVLKGSGRIGDRAIPADEFDPTKHRYDAEYYIENQVLPAVERILKAFGYRKEDLRYQKTKQVGLGAWLKVKGKK
[1]
  Time (mins) to 50% product conversion on second cycle of enzymology: 15 min

B4: FAP: 9° N DM-derived polymerase with amino acids 408-410 FAP (protein, UniProt Q56366 1-775, looked up, variant D141A E143A L408F Y409A A485L)
DNA polymerase: MILDTDYITENGKPVIRVFKKENGEFKIEYDRTFEPYFYALLKDDSAIEDVKKVTAKRHGTVVKVKRAEKVQKKFLGRPIEVWKLYFNHPQDVPAIRDRIRAHPAVVDIYEYDIPFAKRYLIDKGLIPMEGDEELTMLAFAIATLYHEGEEFGTGPILMISYADGSEARVITWKKIDLPYVDVVSTEKEMIKRFLRVVREKDPDVLITYNGDNFDFAYLKKRCEELGIKFTLGRDGSEPKIQRMGDRFAVEVKGRIHFDLYPVIRRTINLPTYTLEAVYEAVFGKPKEKVYAEEIAQAWESGEGLERVARYSMEDAKVTYELGREFFPMEAQLSRLIGQSLWDVSRSSTGNLVEWFLLRKAYKRNELAPNKPDERELARRRGGYAGGYVKEPERGLWDNIVYLDFRSFAPSIIITHNVSPDTLNREGCKEYDVAPEVGHKFCKDFPGFIPSLLGDLLEERQKIKRKMKATVDPLEKKLLDYRQRLIKILANSFYGYYGYAKARWYCKECAESVTAWGREYIEMVIRELEEKFGFKVLYADTDGLHATIPGADAETVKKKAKEFLKYINPKLPGLLELEYEGFYVRGFFVTKKKYAVIDEEGKITTRGLEIVRRDWSEIAKETQARVLEAILKHGDVEEAVRIVKEVTEKLSKYEVPPEKLVIHEQITRDLRDYKATGPHVAVAKRLAARGVKIRPGTVISYIVLKGSGRIGDRAIPADEFDPTKHRYDAEYYIENQVLPAVERILKAFGYRKEDLRYQKTKQVGLGAWLKVKGKK
[1]
  Time (mins) to 50% product conversion on second cycle of enzymology: 5.5 min

B5: 9° N DM: 9° N (-exo) Y409V/A485L double mutant control polymerase; SEQ ID NO: 15 (protein)
chain: MILDTDYITENGKPVIRVFKKENGEFKIEYDRTFEPYFYALLKDDSAIEDVKKVTAKRHGTVVKVKRAEKVQKKFLGRPIEVWKLYFNHPQDVPAIRDRIRAHPAVVDIYEYDIPFAKRYLIDKGLIPMEGDEELTMLAFAIATLYHEGEEFGTGPILMISYADGSEARVITWKKIDLPYVDVVSTEKEMIKRFLRVVREKDPDVLITYNGDNFDFAYLKKRCEELGIKFTLGRDGSEPKIQRMGDRFAVEVKGRIHFDLYPVIRRTINLPTYTLEAVYEAVFGKPKEKVYAEEIAQAWESGEGLERVARYSMEDAKVTYELGREFFPMEAQLSRLIGQSLWDVSRSSTGNLVEWFLLRKAYKRNELAPNKPDERELARRRGGYAGGYVKEPERGLWDNIVYLDFRSLVPSIIITHNVSPDTLNREGCKEYDVAPEVGHKFCKDFPGFIPSLLGDLLEERQKIKRKMKATVDPLEKKLLDYRQRLIKILANSFYGYYGYAKARWYCKECAESVTAWGREYIEMVIRELEEKFGFKVLYADTDGLHATIPGADAETVKKKAKEFLKYINPKLPGLLELEYEGFYVRGFFVTKKKYAVIDEEGKITTRGLEIVRRDWSEIAKETQARVLEAILKHGDVEEAVRIVKEVTEKLSKYEVPPEKLVIHEQITRDLRDYKATGPHVAVAKRLAARGVKIRPGTVISYIVLKGSGRIGDRAIPADEFDPTKHRYDAEYYIENQVLPAVERILKAFGYRKEDLRYQKTKQVGLGAWLKVKGKK
modifications: 9oN polymerase (exo-) with Y409V and A485L mutations
45° C., 50 mM Tris, pH 8, 4 mM MgSO4, 0.05 (v/v) Tween, 50 μg/ml enzyme, 2 μM 3′ modified nucleotide, first cycle (in parentheses)
  Time to 50% product conversion on first cycle of incorporation: no product conversion under these
[1]
  Time (mins) to 50% product conversion on second cycle of enzymology: no product conversion under these
